Test results published in patent US20190233517A1 (published 2019).
Residue numbers refer to the chain shown, from its start. Read-outs that look alike come from different tables or passages of the source. Blank lines part the entries; values can stand above or below the binder they belong to.

What was measured:
[1] = biological target: T1, CD20 on the cell surface of Raji cells (human, UniProt P11836 1-297); assay: FACS binding; Raji cells
T1 chain: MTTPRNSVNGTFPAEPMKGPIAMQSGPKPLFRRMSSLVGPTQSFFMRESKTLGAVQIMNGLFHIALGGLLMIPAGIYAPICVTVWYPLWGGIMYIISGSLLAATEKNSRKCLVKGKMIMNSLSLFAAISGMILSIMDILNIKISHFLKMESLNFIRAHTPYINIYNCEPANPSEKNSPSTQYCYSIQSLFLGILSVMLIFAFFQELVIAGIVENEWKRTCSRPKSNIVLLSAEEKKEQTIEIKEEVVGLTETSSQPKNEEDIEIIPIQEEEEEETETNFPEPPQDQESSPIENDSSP

[2] = biological target: T2, cynomolgus CD3 on primary cynomolgus T cells (UniProt Q95LI5 22-198); assay: FACS
T2 epsilon: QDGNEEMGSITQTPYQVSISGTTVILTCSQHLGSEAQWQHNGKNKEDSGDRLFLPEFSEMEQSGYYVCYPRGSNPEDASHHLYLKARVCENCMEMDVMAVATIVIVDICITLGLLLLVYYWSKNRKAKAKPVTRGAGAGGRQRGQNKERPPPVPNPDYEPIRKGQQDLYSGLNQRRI

[3] = biological target: T3, cynomolgus CD20 on transiently transfected HEK 293 cells (cynomolgus, UniProt M4ZHZ6 1-297); assay: FACS
T3 chain: T1 chain with S25P, F31L, T51A, A157V, K217R, N226S, I227V, T239V

[4] = biological target: CD3 on the cell surface of Jurkat cells (human, UniProt P07766 23-207; P04234 22-171; P09693 23-182); assay: FACS binding; Jurkat cells
[5] = biological target: T2, cynomolgus CD3 on primary cynomolgus T …; assay: FACS binding; cyno T cells
[6] = biological target: T1, CD20 on the cell surface of Raji cells; assay: FACS binding; Raji cells
[7] = biological target: T3, cynomolgus CD20 on transiently …; assay: FACS binding; 293F-cynoCD20 cells

- EC50 [1]: 7.66 nM
B1: FIT021b (antibody)
chain 1: not shown
chain 2: MEFGLSWLFLVAILKGVQCEVQLVESGGGLVQPGRSLRLSCAASGFTFNDYAMHWVRQAPGKGLEWVSTISWNSGSIGYADSVKGRFTISRDNAKKSLYLQMNSLRAEDTALYYCAKDIQYGNYYYGMDVWGQGTTVTVSSASTKGPSVFPLAPSSKSTSGGTAALGCLVKDYFPEPVTVSWNSGALTSGVHTFPAVLQSSGLYSLSSVVTVPSSSLGTQTYICNVNHKPSNTKVDKKVEPKSC
chain 3: MDMRVPAQLLGLLLLWFPGSRCDIQLTQSPSSLSASVGDRVTMSCKSSQSVLYSANHKNYLAWYQQKPGKAPKLLIYWASTRESGVPSRFSGSGSGTDFTFTISSLQPEDIATYYCHQYLSSWTFGGGTKLEIKRTVAAPSVFIFPPSDEQLKSGTASVVCLLNNFYPREAKVQWKVDNALQSGNSQESVTEQDSKDSTYSLSSTLTLSKADYEKHKVYACEVTHQGLSSPVTKSFNRGEC

- EC50 [2]: 490 nM
- EC50 [3]: 3.07 nM
B2: anti-CD20 (Ofatumumab) (antibody, V domains shown)
VH: EVQLVESGGGLVQPGRSLRLSCAASGFTFNDYAMHWVRQAPGKGLEWVSTISWNSGSIGYADSVKGRFTISRDNAKKSLYLQMNSLRAEDTALYYCAKDIQYGNYYYGMDVWGQGTTVTVSS
VL: EIVLTQSPATLSLSPGERATLSCRASQSVSSYLAWYQQKPGQAPRLLIYDASNRATGIPARFSGSGSGTDFTLTISSLEPEDFAVYYCQQRSNWPITFGQGTRLEIK

- EC50 [4]: 0.848 nM
- EC50 [5]: 1.15 nM
- EC50 [6]: ~8160 nM
B3: CD3 mAb (described in US2009/0252683) (antibody, V domains shown)
VH: EVQLLESGGGLVQPGGSLKLSCAASGFTFNTYAMNWVRQAPGKGLEWVARIRSKYNNYATYYADSVKDRFTISRDDSKNTAYLQMNNLKTEDTAVYYCVRHGNFGNSYVSWFAYWGQGTLVTVSS
VL: ELVVTQEPSLTVSPGGTVTLTCRSSTGAVTTSNYANWVQQKPGQAPRGLIGGTNKRAPGTPARFSGSLLGGKAALTLSGVQPEDEAEYYCALWYSNLWVFGGGTKLTVL

- EC50 [5]: 3.85 nM
- EC50 [6]: 16.8 nM
- EC50 [7]: 14.3 nM
B4: FIT018a CD20 (Ofatumumab)/CD3 mAb (bispecific antibody)
chain 1: not shown
chain 2: EVQLVESGGGLVQPGRSLRLSCAASGFTFNDYAMHWVRQAPGKGLEWVSTISWNSGSIGYADSVKGRFTISRDNAKKSLYLQMNSLRAEDTALYYCAKDIQYGNYYYGMDVWGQGTTVTVSSASTKGPSVFPLAPSSKSTSGGTAALGCLVKDYFPEPVTVSWNSGALTSGVHTFPAVLQSSGLYSLSSVVTVPSSSLGTQTYICNVNHKPSNTKVDKKVEPKSC
chain 3: ELVVTQEPSLTVSPGGTVTLTCRSSTGAVTTSNYANWVQQKPGQAPRGLIGGTNKRAPGTPARFSGSLLGGKAALTLSGVQPEDEAEYYCALWYSNLWVFGGGTKLTVLGQPKAAPSVTLFPPSSEELQANKATLVCLISDFYPGAVTVAWKADSSPVKAGVETTTPSKQSNNKYAASSYLSLTPEQWKSHRSYSCQVTHEGSTVEKTVAPTECS
